The Kd is the concentration at which binding is half-saturated. Read a high Kd as a looser complex.

Here are results for two molecules from paper PMC9834408, “The SPOC domain is a phosphoserine binding module that bridges transcription machinery with co- and post-transcriptional regulators” (Nature Communications, 2023).

The target in this assay is 2×S2P CTD diheptapeptide. Put plainly: fluorescence polarisation; fluorescence anisotropy; 90 nM labelled peptide (Atto-488 on CTD peptides, FAM on NCoR and FMR1 peptides) titrated with increasing concentrations of SPOC domain; 20 °C; 25 mM Tris-Cl pH 7.4, 25 mM NaCl, 1 mM DTT; three independent dilution series. A general note: Polarisation of emitted light reports the rotation of a fluorescent probe.

B1: PHF3 SPOC R1248A (domain or fragment)
chain: STFLARLNFIWKGFINMPSVAKFVTKAYPVSGSPEYLTEDLPDSIQVGGAISPQTVWDYVEKIKASGTKEICVVRFTPVTEEDQISYTLLFAYFSSRKRYGVAANNMKQVKDMYLIPLGATDKIPHPLVPFDGPGLELHRPNLLLGLIIRQKLKRQHS
The molecule B1 registered a Kd of 8.4 µM.

B2: DIDO SPOC R1096A (domain or fragment)
chain: TLFLSRLSTIWKGFINMQSVAKFVTKAYPVSGCFDYLSEDLPDTIHIGGAIAPKTVWDYVGKLKSSVSKELCLIRFHPATEEEEVAYISLYSYFSSRGRFGVVANNNRHVKDLYLIPLSAQDPVPSKLLPFEGPGLESPRPNIILGLVICQKIKRPANS
B2 had a Kd of 22.4 µM.
